The source of these data is patent publication US20220372154A1 (APEXIGEN, published 2022).

Assay [1] concerns the target T1, human TNFR2 expressed on cells (human, UniProt P20333 23-461).
T1 sequence (looked up): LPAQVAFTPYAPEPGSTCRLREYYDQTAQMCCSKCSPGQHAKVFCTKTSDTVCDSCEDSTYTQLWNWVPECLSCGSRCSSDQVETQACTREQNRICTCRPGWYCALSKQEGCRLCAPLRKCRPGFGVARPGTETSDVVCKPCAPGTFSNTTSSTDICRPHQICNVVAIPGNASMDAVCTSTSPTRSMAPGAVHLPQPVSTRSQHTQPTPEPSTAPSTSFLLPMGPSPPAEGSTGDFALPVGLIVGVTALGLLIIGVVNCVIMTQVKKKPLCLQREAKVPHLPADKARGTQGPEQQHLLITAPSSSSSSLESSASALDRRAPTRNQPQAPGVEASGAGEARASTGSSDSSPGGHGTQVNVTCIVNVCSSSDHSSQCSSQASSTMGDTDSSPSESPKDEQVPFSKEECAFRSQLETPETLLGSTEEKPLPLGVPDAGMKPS
Briefly: cell-based or functional assay.

Assay [2] concerns the target T2, cynomolgus TNFR2-His tagged protein (cynomolgus, UniProt A0A2K5VET2 132-366).
T2 construct: also called Cyno TNFR2; cynomolgus TNFR2 protein; not shown: His tag
T2 sequence: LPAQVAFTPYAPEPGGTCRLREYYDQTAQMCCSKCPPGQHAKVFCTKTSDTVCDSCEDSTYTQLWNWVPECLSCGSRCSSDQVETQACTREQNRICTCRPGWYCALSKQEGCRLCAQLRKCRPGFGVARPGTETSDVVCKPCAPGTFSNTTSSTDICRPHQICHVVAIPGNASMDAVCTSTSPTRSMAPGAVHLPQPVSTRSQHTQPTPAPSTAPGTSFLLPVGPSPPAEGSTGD
In words: ELISA, cynomolgus TNFR2. (An ELISA detects its analyte on a solid surface through an enzyme-linked reagent.)

In assay [3] the target is T3, human TNFR2-His tagged protein (soluble) (human, UniProt P20333 23-257).
T3 construct: also called hTNFR2 (soluble); soluble TNFR2-His; not shown: His tag
T3 sequence (looked up): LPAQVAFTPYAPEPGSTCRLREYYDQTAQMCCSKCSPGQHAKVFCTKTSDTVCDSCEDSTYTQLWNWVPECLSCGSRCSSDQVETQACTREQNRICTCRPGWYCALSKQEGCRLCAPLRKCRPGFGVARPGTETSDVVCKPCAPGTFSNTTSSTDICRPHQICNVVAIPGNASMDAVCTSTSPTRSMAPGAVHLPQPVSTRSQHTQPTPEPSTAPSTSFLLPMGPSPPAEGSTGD
In words: ELISA, soluble human TNFR2.

Assay [4] has as its target T4, TNFR2 (as used in the Octet measurement) (UniProt P20333 23-257, limits assumed).
T4 construct: Probably human soluble TNFR2; the legend says only TNFR2
T4 sequence (looked up): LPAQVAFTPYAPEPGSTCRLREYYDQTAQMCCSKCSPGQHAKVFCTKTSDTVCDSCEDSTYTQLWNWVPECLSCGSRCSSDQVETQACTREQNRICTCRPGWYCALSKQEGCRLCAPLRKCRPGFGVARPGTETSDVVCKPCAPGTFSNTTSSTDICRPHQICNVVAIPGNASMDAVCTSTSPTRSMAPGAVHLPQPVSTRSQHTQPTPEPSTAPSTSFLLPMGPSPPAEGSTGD
Briefly: Octet (BLI), monovalent binding.

The target of another assay is T5, TNFR-Fc (UniProt P20333 23-257, limits assumed).
T5 construct: Printed only as TNFR-Fc; not shown: Fc part
T5 sequence (looked up): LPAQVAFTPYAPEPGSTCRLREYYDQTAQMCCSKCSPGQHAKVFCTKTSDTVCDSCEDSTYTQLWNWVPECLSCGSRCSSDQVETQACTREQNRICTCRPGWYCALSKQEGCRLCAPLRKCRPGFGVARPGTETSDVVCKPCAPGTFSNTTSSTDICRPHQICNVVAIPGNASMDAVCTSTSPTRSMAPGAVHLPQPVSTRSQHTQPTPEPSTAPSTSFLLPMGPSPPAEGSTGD
Briefly: TNF-α blocking ELISA (soluble).

The target of another assay is T6, death receptor 6 (DR6) (UniProt O75509 42-349, limits assumed).
T6 sequence (looked up): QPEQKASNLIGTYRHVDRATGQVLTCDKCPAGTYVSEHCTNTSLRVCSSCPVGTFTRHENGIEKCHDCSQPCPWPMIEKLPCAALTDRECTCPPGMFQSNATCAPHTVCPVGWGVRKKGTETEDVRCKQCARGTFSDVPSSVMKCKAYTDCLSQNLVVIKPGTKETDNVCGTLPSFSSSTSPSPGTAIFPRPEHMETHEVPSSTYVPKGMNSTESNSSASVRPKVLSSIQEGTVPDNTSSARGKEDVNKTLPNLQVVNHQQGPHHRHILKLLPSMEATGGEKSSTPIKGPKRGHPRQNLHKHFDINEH
Briefly: ELISA on coated DR6, OD 650 nm. The method, then: (§1) To test binding to TNFR family members, target proteins were coated on ELISA plates at 1 μg/mL at 4° C. overnight. Plates were washed, blocked, and antibodies were added at indicated concentrations for 1 hour at RT. Positive control antibodies for each protein were used at ˜1 ug/mL. Antibodies were washed and detected with anti-human IgG HRP for 1 hour. Assay was developed using TMB substrate for 10 minutes. For cell-binding, human CD4+ T cells purified from buffy coats were cultured in flat-bottom plates with anti-CD3/CD28 for 24 hours. Cells were harvested and stained for viability, CD4, CD25 and FOXP3. Test antibody staining was detected using anti-human IgG APC. Binding titration of test antibodies was evaluated on CD4+CD25hiFOXP3+ regulatory T cells and plotted as percent binding.

Another assay deals with T7, osteoprotegerin (OPG) (UniProt O00300 22-401, limits assumed).
T7 sequence (looked up): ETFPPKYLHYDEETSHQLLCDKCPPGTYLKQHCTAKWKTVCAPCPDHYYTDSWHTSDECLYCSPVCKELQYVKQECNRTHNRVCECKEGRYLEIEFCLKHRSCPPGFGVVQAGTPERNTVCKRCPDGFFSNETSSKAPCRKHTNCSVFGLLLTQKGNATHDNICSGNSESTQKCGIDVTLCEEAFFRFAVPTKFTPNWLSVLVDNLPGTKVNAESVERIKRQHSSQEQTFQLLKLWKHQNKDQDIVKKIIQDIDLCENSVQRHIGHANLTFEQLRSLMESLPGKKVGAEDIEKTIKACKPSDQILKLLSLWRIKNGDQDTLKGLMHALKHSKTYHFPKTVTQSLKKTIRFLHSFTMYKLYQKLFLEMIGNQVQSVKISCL
Briefly: ELISA on coated OPG, OD 650 nm. As to the method: as §1

The target of assay [5] is T8, herpesvirus entry mediator (HVEM) (UniProt Q92956 39-202, limits assumed).
T8 sequence (looked up): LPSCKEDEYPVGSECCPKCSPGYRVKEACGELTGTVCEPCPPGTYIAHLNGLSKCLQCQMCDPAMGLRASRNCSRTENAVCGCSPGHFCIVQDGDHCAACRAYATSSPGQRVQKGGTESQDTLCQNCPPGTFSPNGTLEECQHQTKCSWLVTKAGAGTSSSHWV
Briefly: ELISA on coated HVEM, OD 650 nm. As to the method:
as §1

For a further assay, the target named is CD40 (UniProt P25942 21-193, limits assumed). In words: ELISA on coated CD40, OD 650 nm. As to the method: as §1
Assay [6] has as its target T9, human TNFR1-His tagged protein (human, UniProt P19438 30-211, limits assumed).
T9 construct: also called soluble human TNFR1; not shown: His tag
T9 sequence (looked up): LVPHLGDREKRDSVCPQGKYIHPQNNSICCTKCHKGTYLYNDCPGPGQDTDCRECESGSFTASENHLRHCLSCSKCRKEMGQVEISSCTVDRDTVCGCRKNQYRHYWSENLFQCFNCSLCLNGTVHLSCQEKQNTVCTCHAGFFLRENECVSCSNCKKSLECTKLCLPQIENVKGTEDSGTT
Briefly: ELISA on coated TNFR1, OD 450 nm. As to the method: as §1

In assay [7] the target is T1, human TNFR2 expressed on cells. Briefly: flow cytometry, cell-expressed human TNFR2. On the technique in general: A flow cytometer gives signals particle by particle.
Assay [8] has as its target T3, human TNFR2-His tagged protein (soluble). Briefly: ELISA on coated hTNFR2-His, OD 450 nm.
The target of assay [9] is T1, human TNFR2 expressed on cells. Briefly: cell binding on TNFR2-overexpressing (OE) cells.
Assay [10] has the same target. In words: blocking of biotinylated TNF-α on TNFR2-CHO cells, flow cytometry. As to the method:
TNFR2-overexpressing CHO cells were plated at 100,000 cells per well. Cells were incubated with the indicated antibodies for 30 minutes on ice. […] Cells were analyzed using Cytoflex or MACSQuant flow cytometer. Assay was repeated twice.

The target is the same in assay [11]. Briefly: flow cytometry on cells expressing human TNFR2, MFI median.
For assay [12] the target is unchanged. Briefly: Primary Cell Affinity; binding titration on activated human Tregs, flow cytometry. The method, then:
as §1

Sequence of CD40 (P25942 21-193 limits assumed): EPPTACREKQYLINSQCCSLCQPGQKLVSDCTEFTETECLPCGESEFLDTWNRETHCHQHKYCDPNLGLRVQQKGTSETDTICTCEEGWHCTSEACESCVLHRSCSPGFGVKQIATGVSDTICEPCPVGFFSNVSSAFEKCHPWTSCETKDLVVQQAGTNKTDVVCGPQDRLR

B1: humanized antibody h600-25-108 (antibody, V domains shown)
VH: EVQLVESGGGLVQPGGSLRLSCAASGFSLSDYFMTWVRQAPGKGLEWVGIINTGGDSYYATWAKGRFTISRDNSKNTLYLQMNSLRAEDTAVYYCARDTGYGGYDYAGSFDPWGQGTLVTVSS
VL: DIQMTQSPSSVSASVGDRVTITCQASENINSWLAWYQQKPGKAPKLLIYEASKLASGVPSRFSGSGSGTDFTLTISSLQPEDFATYYCQQGYIYIDVGNIFGGGTKVEIK
As a reminder, the EC50 is the concentration giving half of the maximal effect. The low end stands for a more potent agent, the high end for a less potent agent. A word on the koff: it is the rate constant with which the complex falls apart. A low value points to slow dissociation. By kon is commonly meant the second-order rate constant of association. A low value points to slow association. What is called IC50 is the concentration at which inhibition is half-maximal. Read a low IC50 as greater potency. The EC50 (read off the curve) is the midpoint of the concentration-response curve. What is called Kd is the equilibrium constant for the complex coming apart. Read a low Kd as higher affinity. As to B1, the “ADCC EC50 (reporter line)” value in assay [1] worked out at 1.14 nM. In [1], the “ADCP EC50” value amounted to 0.92 nM. For the same molecule, the EC50 is 0.046 nM in [2], 0.105 nM in [3] and 0.31 nM in assay [7]. The off-rate (koff) in assay [4] amounted to 0.000233 s⁻¹. Moreover, the on-rate constant (kon) in assay [4] was determined as 376000 M⁻¹ s⁻¹. Further, the IC50 in the assay with TNFR-Fc is 1.33 nM; in [10], 0.198 nM. Further, the binding result (with death receptor 6 (DR6); in the assay with osteoprotegerin (OPG); in [5]; in the assay with CD40; in assay [6]) was “no binding (tested: about 67 nM)” each time. Besides, the “EC50 (read off the curve)” value in assay [8] was around 0.1 nM; in assay [11] it was around 0.3 nM. For the same molecule, the values for the Kd in assay [9] and in [12] were 0.0994 nM and 0.05 nM, respectively.
